How the values were obtained:
Aβ(1-42) fibrils (human) = test: fibril pull-down: antibody incubated 20 h at 37 °C with Aβ(1-42) fibrils, centrifuged; SDS-PAGE densitometry of the heavy chain in pellet and supernatant
[1] = biological target: Aβ(1-42) globulomer (human); test: dot blot densitometry; reference: Aβ(1-40) monomer
Aβ(1-40) monomer (human) = test: dot blot, 10 pmol antigen on nitrocellulose, 0.2 µg/ml antibody, densitometry
[2] = biological target: Aβ(1-42) monomer, HFIP pretreated (human); test: as above
Sequence of Aβ(1-42) monomer, HFIP pretreated (human) (peptide, as listed by the source): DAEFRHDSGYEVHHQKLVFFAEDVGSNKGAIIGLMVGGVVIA

[3] = biological target: Aβ(1-42) globulomer (human); test: as above
[4] = biological target: Aβ(1-42) globulomer (human); test: dot blot densitometry; reference: Aβ(1-42) monomer

Sequence of Aβ(1-40) monomer (human) (peptide, as listed by the source): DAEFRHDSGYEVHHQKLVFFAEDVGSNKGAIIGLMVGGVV

Row | Substance | Fibril bound Ab fraction (Aβ(1-42) fibrils (human)) [%] | Ratio RD Aβ(1-42) globulomer/RD Aβ(1-40) monomer [1] | Reflective Density (RD) [10 pmol] (Aβ(1-40) monomer (human)) [RD] | Reflective Density (RD) [10 pmol] [2] [RD] | Reflective Density (RD) [10 pmol] [3] [RD] | Ratio RD Aβ(1-42) globulomer/RD Aβ(1-42) monomer [4]
1 | mMAb 6E10 (Signet Inc. Cat.#9320) (antibody) | 91 |  |  |  |  | 
2 | mouse monoclonal antibody 4G8 |  | 10 | 0.15 | 3.5 | 1.5 | 0.42
3 | unspecific antibody IgG2a | 9 |  |  |  |  | 
